Reference: paper PMC2528196

Tests used:
purified protein = substrate: Nc1ncnc2c1ncn2[C@@H]1O[C@H](COP(=O)(O)OP(=O)(O)OP(=O)(O)O)[C@@H](O)[C@H]1O; experiment: purified protein; details: saturating 56-mer ssDNA, 37°C, pH 7.6, 7 mM MgCl2, 100 mM NaCl
Srs2 = Srs2 (Saccharomyces cerevisiae, UniProt P12954 1-1174); experiment: EMSA

B1: Srs2 (Saccharomyces cerevisiae S288C) (protein)
chain: MSSNNDLWLHLVSQLNTQQRAAALFDYTRGLQVIAGPGTGKTKVLTSRVAYLILHHHIHPRDIIVTTFTNKAANEMKERLQEMLRGAGVNISELLIGTFHSICLKILYRFGHLVDLQKDWRIIDEKEIDVILDDMIEKVPDQIRDYASSITRKVNLCMPSKNGDEWTIHPKLIKKQISKLKSNAILPEEYILDSNHDAALGYFYQIYQSELSKKNTLDFDDLLMYTFRLLTRVRVLSNIKHVLVDEFQDTNGIQLDLMFLFAKGNHHLSRGMTIVGDPDQSIYAFRNALAHNFLEMGRKCPIEYSTIILVENYRSSQKILNTSEILITQQNKGRQNRAPLRAQFDLDFPPVYMNFPAYFLEAPSLVRELLYLKALPNLFTFNDFAILVRQRRQIKRIESALIEHRIPYKIIRGHSFWDSKETRAMLNLLKLIFSPNDKHAILASLLYPARGLGPATGEKIKNALDTLATDVSCFQILKDISSKKIMLDIPTKGRSVIADFISMIENCQLLLQSTLLGGLSDLFDKLYELSGLKYEYLYKDGKKKNDQLEKSEPNLLNARHKNIELLKNYFLALLSKSESSDKEKNEAIKAATDEAEPIENKVITPKEYLRNFFNSLSLHSDAAEEEESESNKDAKIKREKNGFVTISTIHGAKGLEWPVVFIPGCEEGIIPCVFNDDKKDESEEDEEEDQENSKKDASPKKTRVLSVEDSIDEERRMFFVAQTRAKYLLYLSNTVTVEDVDRPRIASRFLTTDLIKAMSDSQKLFESTNSIKKLYRILNKKPPAEDDKLFSLDQLRKDYNQFIENRRERMIWQGIQMNDVYGIQLSRNKLLGSVSDFTSAADQLRLETQNSIFPQKKLIEKSRPSKINGNYAPKSRVKSPEKRYAPETTSFHSPTKKKVYAPQYVSTTNVPSRQEFHSSTGKNIPFLRREDRSITDISPRSSTRSLKGASPNKTSHMSDDLMRPSPTRKDKVTRNIHFATAGTFRIETQSNVDELHPPEYSNKSGQSLTSSEFSGFSSACSNSDQPTNLIEDINNELDLSDEELLNDISIERRRELLGSKKTKKIKPKTRNRKSKRGDKVKVEEVIDLKSEFEEDDSRNTTAAELLHNPDDTTVDNRPIISNAKFLADAAMKKTQKFSKKVKNEPASSQMDIFSQLSRAKKKSKLNNGEIIVID
B1 gave a Km (purified protein) of 143 µM and a kcat (purified protein) of 55.3 s⁻¹.

B2: forked DNA P1/P2 (dsDNA)
DNA 1: AGAAGGTTTCGAATCAGAGGTAGGTGCCCGGCCTCCAACTTGCCGTATTCCTGGT
DNA 2: ACCAGGAATACGGCAAGTTGGAGGCCGGGCTGGATGGAGACTAAGCTTTGGAAGT
B2: binds (Srs2).
